Data as given in publication PMC5679670, “The helicase DinG responds to stress due to DNA double strand breaks” (PLoS ONE, 2017).

Key:
[1] = target: T1, DinGNm (Neisseria meningitidis, UniProt Q9K181); experiment: forked DNA (T1+B1) unwinding, native PAGE; type: biochemical; details: 2 mM nucleotide, 2 mM Mg2+, 400 nM DinG, pH 7.5, 37 °C; read-out is nucleotide-dependent unwinding
T1 construct: gene dinG; full-length gene amplified from MC58 genomic DNA, C-terminal 6xHis tag (pET-28b(+), pSB13), E. coli NiCo21(DE3); Ni-NTA and Resource Q; iron-containing (4 Fe per protein)
T1 sequence (Q9K181 1-716): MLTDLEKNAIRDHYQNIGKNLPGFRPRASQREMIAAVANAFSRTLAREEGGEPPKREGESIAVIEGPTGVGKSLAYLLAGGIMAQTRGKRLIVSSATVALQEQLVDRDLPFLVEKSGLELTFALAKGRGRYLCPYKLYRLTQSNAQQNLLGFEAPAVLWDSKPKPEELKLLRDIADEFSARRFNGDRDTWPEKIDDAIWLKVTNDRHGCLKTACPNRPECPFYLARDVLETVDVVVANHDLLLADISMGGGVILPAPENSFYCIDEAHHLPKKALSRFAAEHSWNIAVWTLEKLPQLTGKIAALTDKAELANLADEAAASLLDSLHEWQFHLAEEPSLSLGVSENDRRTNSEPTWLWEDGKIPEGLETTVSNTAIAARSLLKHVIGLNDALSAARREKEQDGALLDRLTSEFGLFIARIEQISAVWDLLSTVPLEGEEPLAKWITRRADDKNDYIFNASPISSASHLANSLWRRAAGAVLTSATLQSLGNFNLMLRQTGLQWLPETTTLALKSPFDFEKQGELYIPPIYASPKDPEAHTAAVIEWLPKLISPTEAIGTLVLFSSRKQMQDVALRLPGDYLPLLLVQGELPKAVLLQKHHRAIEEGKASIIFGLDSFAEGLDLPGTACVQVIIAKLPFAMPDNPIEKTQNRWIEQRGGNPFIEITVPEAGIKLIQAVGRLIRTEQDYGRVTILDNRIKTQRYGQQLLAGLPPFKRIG

[2] = target: SSBNmΔ8C (N. meningitidis MC58); experiment: MST; SSB proteins labelled (RED-NHS, 20.7 nM), DinG proteins titrated as ligands; 20 mM HEPES pH 7.5, 300 mM NaCl, 0.05% Tween 20, 0.1% Pluronic F-127, 0.1% PEG 8000, 2 mM DTT; 22°C, 20% MST power
[3] = target: T2, Neisseria meningitidis helicase DinG (DinGNm) (N. meningitidis MC58, UniProt Q9K181 1-716); experiment: as above; details: both partners purified
T2 construct: DinG helicase of Neisseria meningitidis strain MC58, gene amplified from genomic DNA and cloned into pET-28b(+) (plasmid pSB13); also called Nm DinG; DNA damage-inducible protein DinG; source: E. coli NiCo21 (DE3) with pLysS, purified (Ni-NTA, Resource Q ion exchange)
T2 sequence (looked up): T1 sequence (Q9K181 1-716)

[4] = target: DinGNmK72A (Neisseria meningitidis MC58, UniProt Q9K181 1-716, K72A); experiment: EMSA; protein titration; mutant retained DNA binding affinity; EMSA: 40 mM Tris-HCl pH 8, 2.5 mM EDTA, 2 mM MgCl2, 100 mg/ml BSA (so in the source), 6% glycerol, 2 mM DTT, 0.1 nM 32P-DNA, 15 min on ice; 5% native PAGE in ice bath; details: protein: recombinant; tags: C-terminal 6xHis; label: 32P; single strand

Molecule: Nc1ncnc2c1ncn2[C@H]1C[C@H](O)[C@@H](COP(=O)(O)OP(=O)(O)OP(=O)(O)O)O1 [dATP]
- forked DNA (T1+B1) unwinding, native PAGE [1]: unwinding activity of DinGNm was observed only in the presence of ATP or dATP

B1: Neisseria meningitidis helicase DinG (DinGNm) (enzyme)
chain: T1 sequence (Q9K181 1-716)
- Kd [2]: 3710 nM

B2: Neisseria meningitidis single-stranded DNA binding protein (SSBNm) (natural protein, N. meningitidis MC58, UniProt P66848 1-174, looked up)
chain: MSLNKVILIGRLGRDPEVRYMPNGEAVCNFSVATSETWNDRNGQRVERTEWHNITMYRKLAEIAGQYLKKGGLVYLEGRIQSRKYQGKDGIERTAYDIVANEMKMLGGRNENSGGAPYEEGYGQSQEAYQRPAQQSRQPASDAPSHPQEAPAAPRRQPVPAAAPVEDIDDDIPF
modifications: in the MST assay labelled with the Monolith NT Protein Labeling Kit RED-NHS, degree of labelling 0.7
notes: SSB of Neisseria meningitidis, expression vector pEH1; Unlabelled in the ammonium sulphate co-precipitation
- Kd [3]: 1360 ± 110 nM

B3: poly dT100 (ssDNA)
DNA: TTTTTTTTTTTTTTTTTTTTTTTTTTTTTTTTTTTTTTTTTTTTTTTTTTTTTTTTTTTTTTTTTTTTTTTTTTTTTTTTTTTTTTTTTTTTTTTTTTTT
- binding result [4]: binds
